The supplement of paper PMC11246515
± gives the standard deviation of the averaged measurements.

Assay: total protein half-life in vivo (active degradation + dilution); higher = more stable protein
[1] = E. coli NCM3722 delta-clpP delta-lon delta-hslV, growth: N-lim chemostat, doubling time 6 h
[2] = E. coli NCM3722 delta-clpP, growth: N-lim chemostat, doubling time 6 h
[3] = E. coli NCM3722 delta-hslV, growth: N-lim chemostat, doubling time 6 h
[4] = E. coli NCM3722 delta-lon, growth: N-lim chemostat, doubling time 6 h
[5] = E. coli NCM3722 delta-smpB, growth: N-lim chemostat, doubling time 6 h
[6] = wild type E. coli NCM3722, growth: C-lim chemostat, doubling time 3 h
[7] = wild type E. coli NCM3722, growth: C-lim chemostat, doubling time 6 h
[8] = wild type E. coli NCM3722, growth: C-lim chemostat, doubling time 12 h
[9] = wild type E. coli NCM3722, growth: N-lim chemostat, doubling time 6 h
[10] = wild type E. coli NCM3722, growth: N-lim chemostat, doubling time 12 h
[11] = wild type E. coli NCM3722, growth: P-lim chemostat, doubling time 6 h
[12] = wild type E. coli NCM3722, growth: P-lim chemostat, doubling time 12 h

Sequence	total protein half-life in vivo [1]	total protein half-life in vivo [2]	total protein half-life in vivo [3]	total protein half-life in vivo [4]	total protein half-life in vivo [5]	total protein half-life in vivo [6]	total protein half-life in vivo [7]	total protein half-life in vivo [8]	total protein half-life in vivo [9]	total protein half-life in vivo [10]	total protein half-life in vivo [11]	total protein half-life in vivo [12]
MNAVTEGRKVLLEIADLKVHFEIKDGKQWFWQPPKTLKAVDGVTLRLYEGETLGVVGESGCGKSTFARAIIGLVKATDGHVAWLGKELLGMKPDEWRAVRSDIQMIFQDPLASLNPRMTIGEIIAEPLRTYHPKMSRQEVRERVKAMMLKVGLLPNLINRYPHEFSGGQCQRIGIARALILEPKLIICDEPVSALDVSIQAQVVNLLQQLQREMGLSLIFIAHDLAVVKHISDRVLVMYLGHAVELGTYDEVYHNPLHPYTRALMSAVPIPDPDLEKNKTIQLLEGELPSPINPPSGCVFRTRCPIAGPECAKTRPVLEGSFRHSVSCLKVDPL	5.54 ± 0.093 h	5.82 ± 0.9 h	4.61 ± 0.15 h	4.14 ± 0.14 h	6.25 ± 1.4 h	2.65 ± 0.51 h	6.13 ± 1.6 h	10.3 ± 0.15 h	5.03 ± 0.17 h	8.26 ± 0.85 h	5.69 ± 0.078 h	12.15 ± 0.025 h
MTNTWNRLALLIFAVLSLLVAGELQAGVVVGGTRFIFPADRESISILLTNTSQESWLINSKINRPTRWAGGEASTVPAPLLAAPPLILLKPGTTGTLRLLRTESDILPVDRETLFELSIASVPSGKVENQSVKVAMRSVFKLFWRPEGLPGDPLEAYQQLRWTRNSQGVQLTNPTPYYINLIQVSVNGKALSNVGVVPPKSQRQTSWCQAIAPCHVAWRAINDYGGLSAKKEQNLP	–	–	–	–	–	2.87 h	–	–	–	3.48 h	–	–
MMKFKKCLLPVAMLASFTLAGCQSNADDHAADVYQTDQLNTKQETKTVNIISILPAKVAVDNSQNKRNAQAFGALIGAVAGGVIGHNVGSGSNSGTTAGAVGGGAVGAAAGSMVNDKTLVEGVSLTYKEGTKVYTSTQVGKECQFTTGLAVVITTTYNETRIQPNTKCPEKS	–	–	–	–	2.3 h	1.87 h	–	–	2.73 h	–	–	–
MTLPKIKQVRAWFTGGATAEKGAGGGDYHDQGANHWIDDHIATPMSKYRDYEQSRQSFGINVLGTLVVEVEAENGQTGFAVSTAGEMGCFIVEKHLNRFIEGKCVSDIKLIHDQMLSATLYYSGSGGLVMNTISCVDLALWDLFGKVVGLPVYKLLGGAVRDEIQFYATGARPDLAKEMGFIGGKMPTHWGPHDGDAGIRKDAAMVADMREKCGEDFWLMLDCWMSQDVNYATKLAHACAPYNLKWIEECLPPQQYESYRELKRNAPVGMMVTSGEHHGTLQSFRTLSETGIDIMQPDVGWCGGLTTLVEIAAIAKSRGQLVVPHGSSVYSHHAVITFTNTPFSEFLMTSPDCSTMRPQFDPILLNEPVPVNGRIHKSVLDKPGFGVELNRDCNLKRPYSH	–	–	–	–	–	2.53 ± 0.29 h	3.97 ± 0.25 h	7.51 ± 1.1 h	> 8 h	–	–	9.69 h
MKISRLGEAPDYRFSLANERTFLAWIRTALGFLAAGVGLDQLAPDFATPVIRELLALLLCLFSGGLAMYGYLRWLRNEKAMRLKEDLPYTNSLLIISLILMVVAVIVMGLVLYAG [P0ADM0]	–	–	–	–	–	–	5.742 ± 0.053 h	> 16 h	5.98 h	–	5.91 h	5 h
MYQDKILVRQLGLQPYEPISQAMHEFTDTRDDSTLDEIWLVEHYPVFTQGQAGKAEHILMPGDIPVIQSDRGGQVTYHGPGQQVMYVLLNLKRRKLGVRELVTLLEQTVVNTLAELGIEAHPRADAPGVYVGEKKICSLGLRIRRGCSFHGLALNVNMDLSPFLRINPCGYAGMEMAKISQWKPEATTNNIAPRLLENILALLNNPDFEYITA	4.39 ± 0.44 h	4.08 ± 0.77 h	3.55 h	> 8 h	3.73 ± 0.15 h	2.63 ± 0.15 h	6.03 ± 0.89 h	14.3 h	5.66 h	5.51 ± 1.4 h	5.14 ± 0.06 h	10.6 ± 0.37 h
MNEQYSALRSNVSMLGKVLGETIKDALGEHILERVETIRKLSKSSRAGNDANRQELLTTLQNLSNDELLPVARAFSQFLNLANTAEQYHSISPKGEAASNPEVIARTLRKLKNQPELSEDTIKKAVESLSLELVLTAHPTEITRRTLIHKMVEVNACLKQLDNKDIADYEHNQLMRRLRQLIAQSWHTDEIRKLRPSPVDEAKWGFAVVENSLWQGVPNYLRELNEQLEENLGYKLPVEFVPVRFTSWMGGDRDGNPNVTADITRHVLLLSRWKATDLFLKDIQVLVSELSMVEATPELLALVGEEGAAEPYRYLMKNLRSRLMATQAWLEARLKGEELPKPEGLLTQNEELWEPLYACYQSLQACGMGIIANGDLLDTLRRVKCFGVPLVRIDIRQESTRHTEALGELTRYLGIGDYESWSEADKQAFLIRELNSKRPLLPRNWQPSAETREVLDTCQVIAEAPQGSIAAYVISMAKTPSDVLAVHLLLKEAGIGFAMPVAPLFETLDDLNNANDVMTQLLNIDWYRGLIQGKQMVMIGYSDSAKDAGVMAASWAQYQAQDALIKTCEKAGIELTLFHGRGGSIGRGGAPAHAALLSQPPGSLKGGLRVTEQGEMIRFKYGLPEITVSSLSLYTGAILEANLLPPPEPKESWRRIMDELSVISCDVYRGYVRENKDFVPYFRSATPEQELGKLPLGSRPAKRRPTGGVESLRAIPWIFAWTQNRLMLPAWLGAGTALQKVVEDGKQSELEAMCRDWPFFSTRLGMLEMVFAKADLWLAEYYDQRLVDKALWPLGKELRNLQEEDIKVVLAIANDSHLMADLPWIAESIQLRNIYTDPLNVLQAELLHRSRQAEKEGQEPDPRVEQALMVTIAGIAAGMRNTG	5.93 ± 0.19 h	5.73 ± 0.32 h	5.54 ± 0.18 h	5.364 ± 0.041 h	5.04 ± 0.057 h	2.97 ± 0.16 h	5.78 ± 0.22 h	10.98 ± 0.089 h	5.22 ± 0.11 h	10.6 ± 0.79 h	5.97 ± 0.078 h	11.8 ± 0.8 h
MLQSNEYFSGKVKSIGFSSSSTGRASVGVMVEGEYTFSTAEPEEMTVISGALNVLLPDATDWQVYEAGSVFNVPGHSEFHLQVAEPTSYLCRYL [P0C037]	5.23 ± 0.64 h	3.8 ± 0.061 h	3.59 ± 0.28 h	4.706 ± 0.03 h	3.46 ± 0.4 h	2.75 ± 0.14 h	5.02 ± 0.079 h	9.73 ± 2.5 h	3.78 ± 0.38 h	5.6 h	4.25 ± 0.35 h	6.87 ± 0.11 h
MSQALKNLLTLLNLEKIEEGLFRGQSEDLGLRQVFGGQVVGQALYAAKETVPEERLVHSFHSYFLRPGDSKKPIIYDVETLRDGNSFSARRVAAIQNGKPIFYMTASFQAPEAGFEHQKTMPSAPAPDGLPSETQIAQSLAHLLPPVLKDKFICDRPLEVRPVEFHNPLKGHVAEPHRQVWIRANGSVPDDLRVHQYLLGYASDLNFLPVALQPHGIGFLEPGIQIATIDHSMWFHRPFNLNEWLLYSVESTSASSARGFVRGEFYTQDGVLVASTVQEGVMRNHN [P0AGG2]	5.35 ± 0.059 h	5.17 ± 0.18 h	4.986 ± 0.04 h	5.37 ± 0.47 h	5.17 ± 0.67 h	–	6.42 ± 0.37 h	10.69 ± 0.082 h	5.04 ± 0.13 h	8.59 ± 0.29 h	5.922 ± 0.027 h	13.018 ± 0.0091 h
